# Experimental data as given in patent US20060287236A1.
# Biological target: endogenous peptides
# Assay: acid eluate of purified heterodimer, Edman pool sequencing
binder,measurement,value
"soluble rat FcRn heterodimer (receptor, part only; not given: light chain, UniProt P13599 23-291, looked up, part only) MHC heavy: AEPRLPLMYHLAAVSDLSTGLPSFWATGWLGAQQYLTYNNLRQEADPCGAWIWENQVSWYWEKETTDLKSKEQLFLEAIRTLENQINGTFTLQGLLGCELAPDNSSLPTAVFALNGEEFMRFNPRTGNWSGEWPETDIVGNLWMKQPEAARKESEFLLTSCPERLLGHLERGRQNLEWKEPPSMRLKARPGNSGSSVLTCAAFSFYPPELKFRFLRNGLASGSGNCSTGPNGDGSFHAWSLLEVKRGDEHHYQCQVEHEGLAQPLTVDL","pmole of amino acids recovered from acid elution, cycle 1",5.9 pmol
same,"pmole of amino acids recovered from acid elution, cycle 2",4.7 pmol
same,"pmole of amino acids recovered from acid elution, cycle 3",0.7 pmol
same,"pmole of amino acids recovered from acid elution, cycle 4",7.6 pmol
same,"pmole of amino acids recovered from acid elution, cycle 5",0 pmol
same,"pmole of amino acids recovered from acid elution, cycle 6",0 pmol
same,"pmole of amino acids recovered from acid elution, cycle 7",0.2 pmol
same,"pmole of amino acids recovered from acid elution, cycle 8",0.6 pmol
same,"pmole of amino acids recovered from acid elution, cycle 9",9.5 pmol
same,"pmole of amino acids recovered from acid elution, cycle 10",0.3 pmol
